Key:
[1] = Prothrombin time in arteriovenous shunt model; type: in vivo, Sprague-Dawley male rats; settings: SEQ ID NO:2 33.3 mg/kg i.v. 5 min prior; Rivaroxaban 10 mg/kg p.o. 90 min prior
Description: FIG. 2: Anti-coagulant activity of SEQ ID NO:2 in Arteriovenous Shunt model. Male rats were intravenously injected with saline (Vehicle) or SEQ ID NO:2 solution, according to their body weight. Rivaroxaban was orally administered to the positive control group. 5 to 90 minutes after administration, rats were anesthetized with pentobarbital-na (50 mg/kg). The left jugular vein and the right carotid artery of anesthetized rats were connected with two catheters. The thrombus weight formed on the thread was calculated by subtracting the average weight of the rough nylon thread (A). Prothrombin times were measured (B) and Activated partial thromboplastin times (APTT) were analysed (C). Each bar represents the mean±SEM (n=8 for vehicle and rivaroxaban groups, n=3 for SEQ ID NO:2 group), *p<0.05, **p<0.01, ***p<0.001 vs Vehicle.
The animals were assigned to 3 dosing groups according to the body weight (see table 2). Vehicle treated animals were intravenously injected with saline 90 min prior to shunt assay. The positive control treated animals were orally given Rivaroxaban 10 mg/kg at 90 min prior to shunt assay. SEQ ID NO:2 was intravenously injected 5 min prior to shunt assay.

[2] = Comparable ex vivo APTT study, human
[3] = Comparable ex vivo APTT study, non-human primate
[4] = LPS-induced mortality, survival assay; type: in vivo, C57BL/6 mice; settings: 72 hours
Description: (§1) In this study, female C57BL/6 mice of 10-12 weeks old (Taconic Biosciences) were used. Animals had free access to autoclaved and acidified drinking water. Animals were housed under standard laboratory conditions, air conditioned and filtered with adequate fresh air supply. Animals were kept in a climate controlled environment.
Lipopolysaccharide (LPS) from E. coli (O111:B4) was diluted in PBS.
SEQ ID NO:2 was stored in powder form at 4° C. until use. Powder was added to saline and vortexed into solution to prepare SEQ ID NO:2 stock solution.
For all other groups, LPS was injected intraperitoneally at 10 mg/kg. Mice were intravenously injected 15 minutes and 60 minutes after LPS administration with SEQ ID NO:2 at concentrations of 10, 25, 50 and 100 mg/kg. Except group 6, which was intravenously injected once at 15 minutes and once at 120 minutes after LPS administration.
When high doses of LPS are administered, animals will suffer LPS-induced shock and mortality may be observed. For 72 hours after LPS injection, mice were checked for mortality several times each day. All surviving mice were euthanized at the end of the study (day 3).

[5] = test system: IL-10, TNF, IL-6 and IL-1β in serum; test: LPS-induced cytokine production model, serum cytokines; type: in vivo, C57BL/6 mice; settings: 2 h after LPS
Description: as §1, with “Female” for “In this study, female”, “mice” for “mice of 10-12 weeks old”, “8 weeks of age at the start of the study.” for “used.”
SEQ ID NO:2 (Biospring) (100 mg) was dissolved in 5 ml saline to form a stock solution of 20 mg/ml. Vehicle is saline solution.
Dexamethasone stock was prepared by mixing dexamethasone and beta-cyclodextrin at a 4:96 ratio, solubilized in PBS at 2 mg dexamethasone/mL and stored at −20° C. Dosing solution of dexamethasone was prepared by diluting the stock solution to 1 mg/mL with PBS. Dexamethasone administered at 5 to 10 mg/kg, i.p. is used as a positive control for suppression of the immune response.
Two hours after LPS injection mice were bled and serum was isolated and added to EDTA in Gel Clot Activator tubes. At least 100 μl has been analysed. The concentration of IL-10, TNF, IL-6 and IL-1β in serum was measured using eBioscience's Luminex kit, according to manufacturer's protocol. A single analysis was performed on every sample.

[6] = Fibrinogen and D-dimer analysis of plasma in LPS-induced shock; type: in vivo, C57BL/6 mice; settings: blood at Hour 28
Description: In this study, female C57BL/6 mice of 10-12 weeks old (Taconic Biosciences) were used. Animals had free access to autoclaved and acidified drinking water. Animals were housed under standard laboratory conditions, air conditioned and filtered with adequate fresh air supply. Animals were kept in a climate-controlled environment. Lipopolysaccharide (LPS) from E. coli (O111:B4) was diluted in PBS. SEQ ID NO:2 was stored in powder form at 4° C. until use. Powder was added to saline and vortexed into solution to prepare SEQ ID NO:2 stock solution. […] For all other groups, LPS was injected intraperitoneally at 10 mg/kg. Mice were intravenously injected 15 minutes and 60 minutes after LPS administration with SEQ ID NO:2 at concentrations of 10, 25, 50 and 100 mg/kg. Except group 7, which was intravenously injected once at 15 minutes and once at 120 minutes after LPS administration. Blood collected at Hour 28 was analysed for fibrinogen and D-dimer analysis from citrated plasma performed by IDEXX Laboratories, Inc. (N. Grafton, Mass.). Hook Laboratories attempted to collect enough blood to run each analysis 5 times for each group, but in one case (citrated plasma for D-dimer, for Group 4) we were able to collect only enough blood to run the analysis 4 times.

[7] = 25 mg/kg i.v., not statistically significant
[8] = 50 mg/kg i.v., not statistically significant

B1: SEQ ID NO:2: nucleic acid sequence of SEQ ID NO:1 in which each C and U is fluorinated to increase stability in plasma (nucleic acid)
chain: GGGAAUUCGAGCUCGGUACCAACAAUACGACUACACCAUCAAAAGUAUUAUCUUGCAUCGAAGGUUGGCACGUAGCAAGCUCUGCAGUCG
modifications: fluorinated C and U; (6)..(7) uracil is fluorinated; (8)..(8) cytosine is fluorinated; (12)..(12) cytosine is fluorinated; (13)..(13) uracil is fluorinated; (14)..(14) cytosine is fluorinated; (17)..(17) uracil is fluorinated; (19)..(20) cytosine is fluorinated; (23)..(23) cytosine is fluorinated; (26)..(26) uracil is fluorinated; (28)..(28) cytosine is fluorinated; (31)..(31) cytosine is fluorinated; (32)
Prothrombin times compared to vehicle group [1]: did not show any significant difference | positive effect on APTT [2]: confirmed | positive effect on APTT [3]: confirmed | survival compared to vehicle treated mice ([4]; 25 mg/kg i.v. twice after LPS 10 mg/kg i.p.): significantly improved | survival compared to vehicle treated mice ([4]; 50 mg/kg i.v. twice after LPS 10 mg/kg i.p.): significantly improved | survival compared to vehicle treated mice ([4]; 100 mg/kg i.v. twice after LPS 10 mg/kg i.p.): significantly improved | IL-1β concentration in serum compared to vehicle group ([5]; 5 mg/kg i.v.): similar | IL-6 concentration in serum compared to vehicle group ([5]; 5 mg/kg i.v.): similar | TNF concentration in serum compared to vehicle group ([5]; 5 mg/kg i.v.): similar | serum concentration of IL-10, difference to vehicle group ([5]; 25 mg/kg i.v. 5 min before LPS): significant | IL-1β concentration in serum compared to vehicle group [5, 7]: lower | IL-6 concentration in serum compared to vehicle group [5, 7]: lower | TNF concentration in serum compared to vehicle group [5, 7]: lower | serum concentration of IL-10, difference to vehicle group ([5]; 50 mg/kg i.v. 5 min before LPS): significant | reduction in IL-1β concentration in serum compared to vehicle group ([5]; 50 mg/kg i.v.): statistically significant | IL-6 concentration in serum compared to vehicle group [5, 8]: lower | TNF concentration in serum compared to vehicle group [5, 8]: lower | serum concentration of IL-10 compared to vehicle group ([5]; SEQ ID NO:2 groups (5, 25, 50 mg/kg i.v.) 5 min before LPS): increase | Plasma D-dimer concentrations compared to vehicle treated group ([6]; 50 mg/kg at 60 and 120 minutes after LPS): significantly lower | Plasma D-dimer concentrations compared to vehicle treated group ([6]; 50 mg/kg at 60 and 120 minutes after LPS, listed as Apta-1): greatest reductions | Plasma D-dimer concentrations compared to vehicle treated group ([6]; 100 mg/kg at 15 and 60 min after LPS): significantly lower | D-dimer in plasma, dose dependence ([6]; 10, 25, 50, 100 mg/kg i.v. after LPS): reduced D-dimer in a dose dependent manner | fibrinogen concentrations in plasma compared to vehicle treated mice ([6]; SEQ ID NO:2 treated mice (10, 25, 50, 100 mg/kg i.v.)): no significant differences
